Experimental findings from patent US20250250350A1 are described below.

The target of one assay is MSLN-Bio (human) (UniProt Q13421). In words: flow cytometry, lentivirally transduced primary T cells, stained with ALPG-AF647 (PrimeR axis) and MSLN-Bio / streptavidin-PE (CAR axis). On the technique in general: A flow cytometer gives signals particle by particle.
The next assay has as its target ALPG-AF647 (human) (UniProt P10696). In words: flow cytometry, lentivirally transduced primary T cells without PrimeR, stained with ALPG-AF647 (PrimeR axis) and MSLN-Bio / streptavidin-PE (CAR axis).

MSLN-Bio (human), sequence (Q13421 other isoform, or with tags, fused parts or gaps limits assumed): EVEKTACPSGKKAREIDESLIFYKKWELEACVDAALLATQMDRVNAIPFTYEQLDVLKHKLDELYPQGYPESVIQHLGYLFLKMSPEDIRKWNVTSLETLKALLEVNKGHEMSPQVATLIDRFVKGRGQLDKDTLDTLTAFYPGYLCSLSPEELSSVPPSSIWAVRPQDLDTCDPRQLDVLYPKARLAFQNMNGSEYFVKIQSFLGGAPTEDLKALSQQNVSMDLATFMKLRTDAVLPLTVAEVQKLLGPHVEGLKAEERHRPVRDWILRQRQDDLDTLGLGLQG
ALPG-AF647 (human), sequence (P10696 20-503 limits assumed): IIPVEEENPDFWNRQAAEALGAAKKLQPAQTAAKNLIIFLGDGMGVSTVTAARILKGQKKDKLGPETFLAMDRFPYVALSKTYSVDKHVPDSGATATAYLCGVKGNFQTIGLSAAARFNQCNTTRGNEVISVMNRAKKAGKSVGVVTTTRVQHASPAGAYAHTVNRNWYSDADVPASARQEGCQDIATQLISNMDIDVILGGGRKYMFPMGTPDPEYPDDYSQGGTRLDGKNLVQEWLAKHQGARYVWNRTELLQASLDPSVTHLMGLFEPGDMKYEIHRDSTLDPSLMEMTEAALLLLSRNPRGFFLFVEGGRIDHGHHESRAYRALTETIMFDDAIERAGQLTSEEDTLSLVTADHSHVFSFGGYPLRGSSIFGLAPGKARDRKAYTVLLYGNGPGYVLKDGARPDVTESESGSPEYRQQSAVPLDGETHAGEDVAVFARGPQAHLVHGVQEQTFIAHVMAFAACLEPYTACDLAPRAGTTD

In the case of SS1 CAR, in the assay with MSLN-Bio (human), the % of cells PrimeR+ CAR+ (upper right quadrant) stood at 0.59% and the % of cells PrimeR- CAR+ (upper left quadrant) is 59.2%. In the assay with ALPG-AF647 (human), this substance came in with a % of cells PrimeR+ CAR+ (upper right quadrant) of 0.59% and a % of cells PrimeR+ CAR- (lower right quadrant) of 0.079%.
